57 variants from the RNAGym collection of RNA variant scans (doi:10.7554/elife.80360) can be followed below.

To fix the notation:
B1: Hammerhead Ribozyme (parent)
chain: ACCGGAUGUGCUUUCCGGUCUGAUGAGUCCGUGAGGACGAAACAG

In the data set the parent is B1. The data set is described as follows: self-cleavage, relative activity (ratio to wild type); higher = more cleavage; co-transcriptional.
On to ACCGGUUGUGCUUUCCGGUCUGAUGGGUCCGUGAGGACGAAACAG [A6U A26G], for which the self-cleavage worked out at 0.291.
Consider ACCGGAUGUGCUUUGCGGUCUGAUGAGUCCGUGAGGACGAAGCAG [C15G A42G], for which the self-cleavage came out at 0.276.
For the variant AACGGAUGUGCUUUCCGGUCUGAUGAGUCCGUGUGGACGAAACAG [C2A A34U], the self-cleavage was found to be 0.402.
Then ACGGGAUGUGCUUUCCGGUCUGAUGAGUCCGUGAGGACGAAACGG [C3G A44G], with 0.667.
For the variant ACCGGAUGUGCUUUCCGCUCCGAUGAGUCCGUGAGGACGAAACAG [G18C U21C], the self-cleavage was determined as 0.284.
As to ACCGGAUGUGCUUUCCGGUCUGAUGAGUCCGUGGGGAGGAAACAG [A34G C38G], the self-cleavage was 0.598.
On to ACCGGUUGUGCUUUCCGGUCUGAUGAGUCCGUGAGGACGAAAGAG [A6U C43G], for which the self-cleavage worked out at 0.342.
Then ACCGGAUGUGCUUUCCGGCCUCAUGAGUCCGUGAGGACGAAACAG [U19C G22C], with 0.323; and ACCGGGUGUGCUUUCCGGUCUGAUGUGUCCGUGAGGACGAAACAG [A6G A26U], with 0.71.
As to ACCGGAUGUGCUUUCCGGUCUAAUGAGUCCGUGUGGACGAAACAG [G22A A34U], the self-cleavage came out at 0.309.
The figure for ACCGGAUGUCCUAUCCGGUCUGAUGAGUCCGUGAGGACGAAACAG [G10C U13A] is 1.03.
The figure for ACCGGAUGUGCGUUCCGGUCUGAUGAGUCCGUGAGGACUAAACAG [U12G G39U] is 0.319; for ACCGGAUGUGCUUUCCGGUCUGAUGAGUCCUUGAGGAUGAAACAG [G31U C38U] it is 0.801.
Consider ACCGGUUGGGCUUUCCGGUCUGAUGAGUCCGUGAGGACGAAACAG [A6U U9G], for which the self-cleavage came out at 0.641.
Then ACCGGAUGUGCUUUCCGGCCUGAUUAGUCCGUGAGGACGAAACAG [U19C G25U], with 0.273; and ACCGGAUGUGCUUUCCGGUCCGAUGAGUCCGUGAUGACGAAACAG [U21C G35U], with 0.727.
In the case of ACCGGAUGUGCUUUUCGGUCUGAUGAGACCGUGAGGACGAAACAG [C15U U28A], the self-cleavage stood at 0.516.
Then ACCGGAUGUGCCUUCCGGUCUGAUGAGUCCGUGAGGAUGAAACAG [U12C C38U], with 0.832; and ACCGAAUGUGCUUUCCGGUCUGAUGAGUCCGUGAGUACGAAACAG [G5A G36U], with 0.41; and ACCGGAUGUGCUUCCCGGUCUGAUCAGUCCGUGAGGACGAAACAG [U14C G25C], with 0.228.
On to ACCCGAUGUGCUUUCCGGGCUGAUGAGUCCGUGAGGACGAAACAG [G4C U19G], for which the self-cleavage stood at 0.322.
In the case of ACCGGAUGUGCUUUCCGGCCUGAUGAGUCCGUGUGGACGAAACAG [U19C A34U], the self-cleavage is 0.339.
Consider ACCGGAUGUGCUUUCCGGUCUGAUGAGUCGGUGAGGACGAAUCAG [C30G A42U], for which the self-cleavage worked out at 0.227.
Turning to ACCGGAUGUGCUUUCCGGUCUGAUGCUUCCGUGAGGACGAAACAG [A26C G27U], the self-cleavage came out at 0.397.
For the variant ACCGAAUGAGCUUUCCGGUCUGAUGAGUCCGUGAGGACGAAACAG [G5A U9A], the self-cleavage was 1.27.
For ACUGGAUGUGCUUUCCGGUCUGAUGAGUCCGUGAGGACGAAACAU [C3U G45U], the self-cleavage is 0.599.
Take ACCGGAUGUGCUUUCCGGGCUGAUGUGUCCGUGAGGACGAAACAG [U19G A26U]: the self-cleavage was found to be 0.332.
As for ACCGGAUGUGCUUUCCGGUCUGAUGAGUCCGCGAAGACGAAACAG [U32C G35A], the self-cleavage amounted to 0.83.
ACCGGAGGGGCUUUCCGGUCUGAUGAGUCCGUGAGGACGAAACAG [U7G U9G]: the self-cleavage stood at 1.35.
Take ACCGGAUGUGCUUUCCGGUCUGCAGAGUCCGUGAGGACGAAACAG [A23C U24A]: the self-cleavage was determined as 0.397.
Consider ACCUGAUGUGCUUUCCGGUCUGAUGAGUCCGUGAGGACGGAACAG [G4U A40G], for which the self-cleavage amounted to 0.303.
As to ACCGGAUGUGCUUUAUGGUCUGAUGAGUCCGUGAGGACGAAACAG [C15A C16U], the self-cleavage was found to be 0.647.
As for ACCGGAUGUGCUGUCCGGUCUGAUGAGUCCCUGAGGACGAAACAG [U13G G31C], the self-cleavage came out at 0.943.
As to ACGGGAUGUGCUUUCAGGUCUGAUGAGUCCGUGAGGACGAAACAG [C3G C16A], the self-cleavage was found to be 0.39.
Regarding ACCGUAUGUGCUUUCCGGUCUGAUGAGUCCGUGAAGACGAAACAG [G5U G35A], the self-cleavage amounted to 0.476.
The figure for ACCUGAUGUGCUUUCCGGUUUGAUGAGUCCGUGAGGACGAAACAG [G4U C20U] is 0.364; for ACCGGAGGUGCUUUCCGGUCUGAUGAGGCCGUGAGGACGAAACAG [U7G U28G] it is 0.502; for ACCGGAUGUGCUUUCGGGUCUGAUGAUUCCGUGAGGACGAAACAG [C16G G27U] it is 0.304.
Consider AUCGGAUGUGCUUUCCGGUCUGAUGAGUCCGUGAGGCCGAAACAG [C2U A37C], for which the self-cleavage was 0.782.
In the case of ACCGGAUGCGUUUUCCGGUCUGAUGAGUCCGUGAGGACGAAACAG [U9C C11U], the self-cleavage turned out to be 0.889.
Take ACCGGAUGUGCUUUCCGCUCUGAUGAGUCCGUGAGGACAAAACAG [G18C G39A]: the self-cleavage worked out at 0.289.
GCCGGAUGUGCUUUCCGGUCUGAUGAGUCCUUGAGGACGAAACAG [A1G G31U]: the self-cleavage was 1.88.
With ACCGGAGGUGCUUUCCGGUCUGAUGAGUCCGUGAGGACGGAACAG [U7G A40G], the self-cleavage turned out to be 0.291.
Take ACCGGAUGUGCUUUCCGGCCUGAUGAGUCCGUGAUGACGAAACAG [U19C G35U]: the self-cleavage was determined as 0.465.
For the variant ACCGGAUGUGCGUUCCGGUCUGAUGAGUCCUUGAGGACGAAACAG [U12G G31U], the self-cleavage was 1.11.
Turning to ACCGGACGUGCUUUCCGGUCUGCUGAGUCCGUGAGGACGAAACAG [U7C A23C], the self-cleavage worked out at 0.356.
On to ACCGGAUGUGCUUUCUGGUCGGAUGAGUCCGUGAGGACGAAACAG [C16U U21G], for which the self-cleavage was 0.588.
On to ACCGGAUGUGCUUUACCGUCUGAUGAGUCCGUGAGGACGAAACAG [C15A G17C], for which the self-cleavage worked out at 0.328.
Turning to ACCGGAUGUGCUUACCGGUCUGAUGUGUCCGUGAGGACGAAACAG [U14A A26U], the self-cleavage amounted to 0.65.
For the variant ACCGGAUGUGCUUGCCGGUCUGAUGAGGCCGUGAGGACGAAACAG [U14G U28G], the self-cleavage came out at 0.585.
Then ACCGGAUGUGCUUUCCGGUCUGAUGAGUGCGUGAGGAGGAAACAG [C29G C38G], with 0.424; and ACCGGAUGUGCGAUCCGGUCUGAUGAGUCCGUGAGGACGAAACAG [U12G U13A], with 1.25.
As to ACCGGCUGUGCUUUCCGGUCUGAUGAGUCAGUGAGGACGAAACAG [A6C C30A], the self-cleavage came out at 0.588.
On to ACCGGAUGUGCUAUCCGGUCUGAUGAGUCCGUGAGGACCAAACAG [U13A G39C], for which the self-cleavage stood at 0.341.
As to ACCGGAUGUGCUUUCCGGUCUGAUGUGUCCGUGAGGAGGAAACAG [A26U C38G], the self-cleavage came out at 0.318.
For the variant ACCGGAUGUGCUUUCCCGUCUGAUAAGUCCGUGAGGACGAAACAG [G17C G25A], the self-cleavage was 0.362.
With ACCGGAUGUGCUUUCCGUUCUGAUGAGUUCGUGAGGACGAAACAG [G18U C29U], the self-cleavage is 0.547.
